Target: Leptin receptor
Assay: cell-based or functional assay

EC50 (Baf3-LepR cell proliferation, AlamarBlue): 0.0575 nM
B1: BLV1H12 hLeptin fusion protein (antibody, human IgG1)
heavy: not shown
light: QAVLNQPSSVSGSLGQRVSITCSGSSSNVGNGYVSWYQLIPGSAPRTLIYGDTSRASGVPDRFSGSRSGNTATLTISSLQAEDEADYFCASAEDSSSNAVFGSGTTLTVLGQPKSPPSVTLFPPSTEELNGNKATLVCLISDFYPGSVTVVWKADGSTITRNVETTRASKQSNSKYAASSYLSLTSSDWKSKGSYSCEVTHEGSTVTKTVKPSECS
